Drawing on PMC6532931, “Structures suggest a mechanism for energy coupling by a family of organic anion transporters” (PLoS Biology, 2019), this text covers Km for 1 protein.

Substrate in this data set: O=C(O)[C@H](O)[C@@H](O)[C@@H](O)[C@H](O)CO
Put plainly: cells, lysate or membranes. The note with it: pH 6.5, 150 mM KCl, 25 °C, 30 s uptake, labelled compound, H+ symport. It is filed as cell-based, Escherichia coli.

B1: DgoT (Escherichia coli) (protein)
chain: MVSGFAMPKIWRKLAMDIPVNAAKPGRRRYLTLVMIFITVVICYVDRANLAVASAHIQEEFGITKAEMGYVFSAFAWLYTLCQIPGGWFLDRVGSRVTYFIAIFGWSVATLFQGFATGLMSLIGLRAITGIFEAPAFPTNNRMVTSWFPEHERASAVGFYTSGQFVGLAFLTPLLIWIQEMLSWHWVFIVTGGIGIIWSLIWFKVYQPPRLTKGISKAELDYIRDGGGLVDGDAPVKKEARQPLTAKDWKLVFHRKLIGVYLGQFAVASTLWFFLTWFPNYLTQEKGITALKAGFMTTVPFLAAFVGVLLSGWVADLLVRKGFSLGFARKTPIICGLLISTCIMGANYTNDPMMIMCLMALAFFGNGFASITWSLVSSLAPMRLIGLTGGVFNFAGGLGGITVPLVVGYLAQGYGFAPALVYISAVALIGALSYILLVGDVKRVG
notes: full-length in pQE60, C-terminal thrombin site and decahistidine tag (kept in uptake assays, cut for crystallization); expressed in E. coli dgoT knock-out (Keio, lambda-DE3) for uptake, E. coli C41 for purification
For orientation: Km means the substrate concentration at which the rate is half of its maximum. With B1, the Michaelis-Menten constant (Km) came out at 18 ± 4 µM.
